This is an account of results in paper PMC3192257 (Molecular microbiology, 2011).

The labels stand for the following.
B1: His-CsrA (CsrA containing six His residues at the C-terminus) (natural protein, Bacillus subtilis, UniProt P33911 1-74, looked up)
chain: MLVLSRKINEAIQIGADIEVKVIAVEGDQVKLGIDAPKHIDIHRKEIYLTIQEENNRAAALSSDVISALSSQKK
B2: 6His-Hag fusion protein (flagellin) (natural protein)
chain: not shown
B3: FliW (natural protein, Bacillus subtilis (strain 3610), UniProt P96503 1-143, looked up)
chain: MIIHTKYHGQMNIKEEQIILFESGIPGFLEEKQFVILPLSEDSPFVALQSVTSENLAFIVVSPFIFFKNYEFDLDESTAELLDIDNIQDVEVMTILTMAEPFEKSTANLLAPIIVNRKNMMAKQVVLHDSSYTTKHPIGGESC

Test [1] addresses B3. In words: ITC.
Test [2] has as its target B2. The experiment in a line: ITC.

Consider B1, for which, in test [1], the Kd was determined as 20 nM, the dH is -15.4 kcal/mol and the “stoichiometry N” value was 0.46.

Turning to B2, in test [1], the dH was -22 kcal/mol and the “stoichiometry N” value stood at 1.29.

B3 came in with a Kd in test [2] of 140 nM.
